Source: article PMC9960064 (The Journal of Cell Biology, 2023)
Several values for one entry are separate records, joined by “and”; a condition that tells them apart may be missing. Identical values can stand only once. Each block holds one binder with its values, some of them ahead of it.

How the values were obtained:
[1] = biological target: T1, β′-COP residues 1–604 with a C-terminal GST tag (yeast (S. cerevisiae), UniProt P41811 1-604); assay: pull-down
T1 sequence (looked up): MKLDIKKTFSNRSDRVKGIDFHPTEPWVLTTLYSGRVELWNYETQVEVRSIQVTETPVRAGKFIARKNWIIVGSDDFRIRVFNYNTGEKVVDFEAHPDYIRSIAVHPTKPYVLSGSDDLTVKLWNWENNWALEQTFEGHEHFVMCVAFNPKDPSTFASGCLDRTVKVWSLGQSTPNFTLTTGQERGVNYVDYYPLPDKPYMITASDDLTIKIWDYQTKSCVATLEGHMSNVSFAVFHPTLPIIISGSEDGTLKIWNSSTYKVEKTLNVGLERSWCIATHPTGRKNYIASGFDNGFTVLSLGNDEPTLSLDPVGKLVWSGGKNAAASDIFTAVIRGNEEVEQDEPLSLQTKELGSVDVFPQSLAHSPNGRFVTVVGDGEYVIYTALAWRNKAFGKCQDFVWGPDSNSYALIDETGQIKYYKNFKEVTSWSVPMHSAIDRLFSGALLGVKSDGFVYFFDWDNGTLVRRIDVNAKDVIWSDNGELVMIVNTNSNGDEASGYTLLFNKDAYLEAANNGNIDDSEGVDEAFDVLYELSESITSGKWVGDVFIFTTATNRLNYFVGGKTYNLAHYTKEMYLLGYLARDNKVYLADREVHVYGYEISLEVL

[2] = biological target: T2, mutant β′-COP (D437A/D450A), residues 1–604, untagged (yeast (S. cerevisiae), UniProt P41811 1-604, D437A | D450A); assay: ITC
T2 sequence (looked up): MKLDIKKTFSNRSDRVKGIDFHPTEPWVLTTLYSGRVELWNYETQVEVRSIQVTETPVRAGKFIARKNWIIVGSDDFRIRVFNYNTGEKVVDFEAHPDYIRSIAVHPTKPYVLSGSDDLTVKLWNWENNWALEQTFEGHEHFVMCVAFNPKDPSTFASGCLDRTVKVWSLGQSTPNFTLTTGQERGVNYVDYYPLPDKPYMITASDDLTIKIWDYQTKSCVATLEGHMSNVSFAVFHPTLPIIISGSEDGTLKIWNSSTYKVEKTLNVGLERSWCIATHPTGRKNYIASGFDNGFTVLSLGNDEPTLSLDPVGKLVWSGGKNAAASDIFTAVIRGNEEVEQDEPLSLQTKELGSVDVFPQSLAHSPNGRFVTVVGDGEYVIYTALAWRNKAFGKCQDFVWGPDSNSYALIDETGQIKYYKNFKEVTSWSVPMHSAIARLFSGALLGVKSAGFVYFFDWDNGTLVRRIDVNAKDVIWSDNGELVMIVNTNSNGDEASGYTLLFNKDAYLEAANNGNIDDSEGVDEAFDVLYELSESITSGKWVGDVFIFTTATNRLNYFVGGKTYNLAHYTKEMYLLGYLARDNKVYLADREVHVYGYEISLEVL

[3] = biological target: T3, untagged β′-COP residues 1–604 (yeast (S. cerevisiae), UniProt P41811 1-604); assay: ITC
T3 sequence (looked up): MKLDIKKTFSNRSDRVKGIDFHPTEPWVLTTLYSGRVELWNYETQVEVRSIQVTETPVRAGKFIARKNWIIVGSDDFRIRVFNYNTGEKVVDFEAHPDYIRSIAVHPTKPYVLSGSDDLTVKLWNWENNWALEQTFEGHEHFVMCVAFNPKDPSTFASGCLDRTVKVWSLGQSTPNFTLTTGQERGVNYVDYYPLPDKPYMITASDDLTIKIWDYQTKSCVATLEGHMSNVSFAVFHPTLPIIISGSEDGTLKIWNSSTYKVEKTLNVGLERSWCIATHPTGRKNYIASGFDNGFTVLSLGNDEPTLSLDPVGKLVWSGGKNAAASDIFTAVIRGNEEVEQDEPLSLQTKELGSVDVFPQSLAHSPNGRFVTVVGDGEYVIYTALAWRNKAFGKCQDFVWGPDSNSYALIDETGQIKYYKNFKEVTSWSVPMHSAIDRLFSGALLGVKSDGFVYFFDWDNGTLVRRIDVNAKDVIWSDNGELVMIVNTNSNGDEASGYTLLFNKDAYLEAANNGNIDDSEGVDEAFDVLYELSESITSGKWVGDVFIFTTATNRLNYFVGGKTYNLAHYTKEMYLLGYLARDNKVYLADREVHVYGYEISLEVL

[4] = biological target: T4, β′-COP D98A/D117A, residues 1–604, untagged (yeast (S. cerevisiae), UniProt P41811 1-604, D98A | D117A); assay: ITC
T4 sequence (looked up): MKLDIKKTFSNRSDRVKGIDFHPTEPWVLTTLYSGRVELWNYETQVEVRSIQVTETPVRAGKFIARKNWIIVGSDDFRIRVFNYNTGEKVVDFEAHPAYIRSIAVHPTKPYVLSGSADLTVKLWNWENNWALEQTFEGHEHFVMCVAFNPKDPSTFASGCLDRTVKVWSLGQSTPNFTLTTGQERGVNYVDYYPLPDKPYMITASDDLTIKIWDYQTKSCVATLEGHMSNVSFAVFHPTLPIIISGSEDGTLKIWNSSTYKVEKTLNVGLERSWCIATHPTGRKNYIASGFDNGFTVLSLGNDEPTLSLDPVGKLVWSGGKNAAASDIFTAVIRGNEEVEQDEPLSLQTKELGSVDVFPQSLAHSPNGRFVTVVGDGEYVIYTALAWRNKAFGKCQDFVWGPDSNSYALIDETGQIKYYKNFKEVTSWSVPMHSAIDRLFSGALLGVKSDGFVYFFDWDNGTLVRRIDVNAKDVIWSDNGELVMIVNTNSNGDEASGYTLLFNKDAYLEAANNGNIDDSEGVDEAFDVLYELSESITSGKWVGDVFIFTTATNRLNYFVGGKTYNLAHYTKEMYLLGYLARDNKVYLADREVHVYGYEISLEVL

β′604-H6 = biological target: T5, β′604-H6 (yeast (S. cerevisiae), UniProt P41811 1-604); assay: pull-down
T5 sequence (looked up): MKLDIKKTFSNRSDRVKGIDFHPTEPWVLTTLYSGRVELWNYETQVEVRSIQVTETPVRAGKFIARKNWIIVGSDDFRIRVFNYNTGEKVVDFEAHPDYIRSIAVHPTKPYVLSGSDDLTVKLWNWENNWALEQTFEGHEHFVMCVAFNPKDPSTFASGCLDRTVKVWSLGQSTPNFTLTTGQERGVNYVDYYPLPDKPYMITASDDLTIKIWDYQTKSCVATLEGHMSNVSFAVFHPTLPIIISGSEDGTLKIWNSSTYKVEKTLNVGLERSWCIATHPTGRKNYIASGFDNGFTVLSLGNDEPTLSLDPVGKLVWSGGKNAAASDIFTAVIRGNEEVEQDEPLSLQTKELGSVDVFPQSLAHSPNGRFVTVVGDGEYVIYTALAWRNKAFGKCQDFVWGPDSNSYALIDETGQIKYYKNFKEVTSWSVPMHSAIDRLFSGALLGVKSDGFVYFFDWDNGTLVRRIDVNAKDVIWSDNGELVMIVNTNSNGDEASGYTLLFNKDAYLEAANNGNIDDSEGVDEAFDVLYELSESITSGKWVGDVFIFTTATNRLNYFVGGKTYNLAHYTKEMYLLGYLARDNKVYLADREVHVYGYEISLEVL

[5] = biological target: T6, N-terminal β′-COP propeller (residues 1–304), untagged (yeast (S. cerevisiae), UniProt P41811 1-304); assay: ITC
T6 sequence (looked up): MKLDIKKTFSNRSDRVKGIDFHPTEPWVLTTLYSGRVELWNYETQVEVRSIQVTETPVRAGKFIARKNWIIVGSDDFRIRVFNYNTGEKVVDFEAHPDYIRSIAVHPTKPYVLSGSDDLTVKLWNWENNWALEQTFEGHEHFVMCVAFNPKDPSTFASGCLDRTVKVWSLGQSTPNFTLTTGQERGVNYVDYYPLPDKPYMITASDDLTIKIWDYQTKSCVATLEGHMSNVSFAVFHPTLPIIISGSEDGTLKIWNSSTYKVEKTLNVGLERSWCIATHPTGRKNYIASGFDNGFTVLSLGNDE

B2: untagged Glo3 residues 230–290 (domain or fragment, yeast (S. cerevisiae), UniProt P38682 230-290, looked up)
chain: SQDKKKHSILSSSRKPTRLTAKKVDKSQAEDLFDQFKKEAQQEKEDEFTNSSSSTKIRQND
Kd [2]: 18 µM
Kd [3]: 0.6 µM and 0.8 to 6 µM
stoichiometry N [3]: 1
binding result [4]: binds

B5: Glo3 (residues 230–290) K251E/K252E/K255E (domain or fragment, yeast (S. cerevisiae), UniProt P38682 230-290, looked up)
chain: SQDKKKHSILSSSRKPTRLTAEEVDESQAEDLFDQFKKEAQQEKEDEFTNSSSSTKIRQND
Kd [3]: ~12 µM

B7: Glo3 residues 230–270, untagged (domain or fragment, yeast (S. cerevisiae), UniProt P38682 230-270, looked up)
chain: SQDKKKHSILSSSRKPTRLTAKKVDKSQAEDLFDQFKKEAQ
binding result [3]: binds

B8: Glo3 residues 220–290, untagged (domain or fragment, yeast (S. cerevisiae), UniProt P38682 220-290, looked up)
chain: TASRKKPVLNSQDKKKHSILSSSRKPTRLTAKKVDKSQAEDLFDQFKKEAQQEKEDEFTNSSSSTKIRQND
binding result [3]: binds

B9: untagged Glo3 BoCCS fragment (residues 230–300) (domain or fragment, yeast (S. cerevisiae), UniProt P38682 230-300, looked up)
chain: SQDKKKHSILSSSRKPTRLTAKKVDKSQAEDLFDQFKKEAQQEKEDEFTNSSSSTKIRQNDYDSQFMNNSK
Kd [3]: ~1 µM
stoichiometry N [3]: 1
Kd [5]: < 300 µM

Next, values leading:

binding result [1]: binds
B1: full-length Glo3-H8 (natural protein)
chain: not shown

Kd [3]: < 300 µM
B3: Glo3 (residues 230–290) K233E/K234E/K235E (domain or fragment, yeast (S. cerevisiae), UniProt P38682 230-290, looked up)
chain: SQDEEEHSILSSSRKPTRLTAKKVDKSQAEDLFDQFKKEAQQEKEDEFTNSSSSTKIRQND

Kd [3]: ~12 µM
B4: Glo3 (residues 230–290) K233E (domain or fragment, yeast (S. cerevisiae), UniProt P38682 230-290, looked up)
chain: SQDEKKHSILSSSRKPTRLTAKKVDKSQAEDLFDQFKKEAQQEKEDEFTNSSSSTKIRQND

binding result (β′604-H6): binds
B6: GST-BoCCS, Glo3 residues 208–383 (domain or fragment, yeast (S. cerevisiae), UniProt P38682 208-383, looked up)
chain: KTTVTKTRSSILTASRKKPVLNSQDKKKHSILSSSRKPTRLTAKKVDKSQAEDLFDQFKKEAQQEKEDEFTNSSSSTKIRQNDYDSQFMNNSKGNNNNSIDDINTQPDEFNDFLNDTSNSFDTTRKEQQDTLTPKFAKLGFGMTMNDANDLAKQQKESQKIAQGPRYTGRIAERYG
